Data published in the RNAGym collection of RNA variant scans (doi:10.7554/elife.90254).

B1: LINE1-mini (parent)
chain: GGCAGAGCUCAACACAGCGUGGCAAAGUGGCUGUGGCUAGACUGCC

Variants of: B1
Assay: self-cleavage, relative activity (ratio to wild type); higher = more cleavage; in vitro, sequencing; the parent is a self-cleaving ribozyme

**Q.** With GGCAGAGCUCAACACAGCGUGGCAAAGUGGCUGUGGCUAGACUACA as the variant, how does the self-cleavage read?
**A.** 0.08

**Q.** For GGCAGAGCUCAACACAGCGUGGCAAAGUGGCUGUGGCUAGACUACG, which self-cleavage is on record?
**A.** 0.12

**Q.** For GGCAGAGCUCAACACAGCGUGGCAAAGUGGCUGUGGCUAGACUGGU, which self-cleavage is on record?
**A.** 0.66

**Q.** With GGCAGAGCUCAACACAGCGUGGCAAAGUGGCUGUGGCUAGACUGGA as the variant, how does the self-cleavage read?
**A.** 0.21

**Q.** Which self-cleavage does the source give for GGCAGAGCUCAACACAGCGUGGCAAAGUGGCUGUGGCUAGACUGGG here?
**A.** 0.53

**Q.** For GGCAGAGCUCAACACAGCGUGGCAAAGUGGCUGUGGCUAGACACCC, which self-cleavage is on record?
**A.** 0.1

**Q.** With GGCAGAGCUCAACACAGCGUGGCAAAGUGGCUGUGGCUAGACAACC as the variant, how does the self-cleavage read?
**A.** 0.1

**Q.** With GGCAGAGCUCAACACAGCGUGGCAAAGUGGCUGUGGCUAGACAUCC as the variant, how does the self-cleavage read?
**A.** 0.18

**Q.** With GGCAGAGCUCAACACAGCGUGGCAAAGUGGCUGUGGCUAGAGUGUC as the variant, how does the self-cleavage read?
**A.** 0.05

**Q.** For GGCAGAGCUCAACACAGCGUGGCAAAGUGGCUGUGGCUAGAGUGGC, which self-cleavage is on record?
**A.** 0.09

**Q.** Which self-cleavage does the source give for GGCAGAGCUCAACACAGCGUGGCAAAGUGGCUGUGGCUAGAGUGAC here?
**A.** 0.04

**Q.** Which self-cleavage does the source give for GGCAGAGCUCAACACAGCGUGGCAAAGUGGCUGUGGCUAGAUUACC here?
**A.** 0.16

**Q.** For GGCAGAGCUCAACACAGCGUGGCAAAGUGGCUGUGGCUAGAUUUCC, which self-cleavage is on record?
**A.** 0.1

**Q.** Which self-cleavage does the source give for GGCAGAGCUCAACACAGCGUGGCAAAGUGGCUGUGGCUAGAUUCCC here?
**A.** 0.13

**Q.** For GGCAGAGCUCAACACAGCGUGGCAAAGUGGCUGUGGCUAGACCGGC, which self-cleavage is on record?
**A.** 0.1

**Q.** For GGCAGAGCUCAACACAGCGUGGCAAAGUGGCUGUGGCUAGACCGAC, which self-cleavage is on record?
**A.** 0.08

**Q.** With GGCAGAGCUCAACACAGCGUGGCAAAGUGGCUGUGGCUAGACCGUC as the variant, how does the self-cleavage read?
**A.** 0.13

**Q.** Which self-cleavage does the source give for GGCAGAGCUCAACACAGCGUGGCAAAGUGGCUGUGGCUAGAAUACC here?
**A.** 0.25

**Q.** With GGCAGAGCUCAACACAGCGUGGCAAAGUGGCUGUGGCUAGAAUUCC as the variant, how does the self-cleavage read?
**A.** 0.11

**Q.** For GGCAGAGCUCAACACAGCGUGGCAAAGUGGCUGUGGCUAGAAUCCC, which self-cleavage is on record?
**A.** 0.12

**Q.** For GGCAGAGCUCAACACAGCGUGGCAAAGUGGCUGUGGCUAGACUACC, which self-cleavage is on record?
**A.** 0.44

**Q.** With GGCAGAGCUCAACACAGCGUGGCAAAGUGGCUGUGGCUAGACUUCC as the variant, how does the self-cleavage read?
**A.** 0.32

**Q.** Which self-cleavage does the source give for GGCAGAGCUCAACACAGCGUGGCAAAGUGGCUGUGGCUAGACUCCC here?
**A.** 0.36

**Q.** Which self-cleavage does the source give for GGCAGAGCUCAACACAGCGUGGCAAAGUGGCUGUGGCUAGAAUGGC here?
**A.** 0.21

**Q.** Which self-cleavage does the source give for GGCAGAGCUCAACACAGCGUGGCAAAGUGGCUGUGGCUAGAAUGAC here?
**A.** 0.09

**Q.** With GGCAGAGCUCAACACAGCGUGGCAAAGUGGCUGUGGCUAGAAUGUC as the variant, how does the self-cleavage read?
**A.** 0.13

**Q.** Which self-cleavage does the source give for GGCAGAGCUCAACACAGCGUGGCAAAGUGGCUGUGGCUAGACCGCU here?
**A.** 0.1

**Q.** Which self-cleavage does the source give for GGCAGAGCUCAACACAGCGUGGCAAAGUGGCUGUGGCUAGACCGCA here?
**A.** 0.11

**Q.** For GGCAGAGCUCAACACAGCGUGGCAAAGUGGCUGUGGCUAGACCGCG, which self-cleavage is on record?
**A.** 0.12

**Q.** For GGCAGAGCUCAACACAGCGUGGCAAAGUGGCUGUGGCUAGUCUCCC, which self-cleavage is on record?
**A.** 0.49

**Q.** With GGCAGAGCUCAACACAGCGUGGCAAAGUGGCUGUGGCUAGUCUACC as the variant, how does the self-cleavage read?
**A.** 0.31

**Q.** For GGCAGAGCUCAACACAGCGUGGCAAAGUGGCUGUGGCUAGUCUUCC, which self-cleavage is on record?
**A.** 0.16

**Q.** With GGCAGAGCUCAACACAGCGUGGCAAAGUGGCUGUGGCUAGACUAUC as the variant, how does the self-cleavage read?
**A.** 0.1

**Q.** With GGCAGAGCUCAACACAGCGUGGCAAAGUGGCUGUGGCUAGACUAAC as the variant, how does the self-cleavage read?
**A.** 0.07

**Q.** With GGCAGAGCUCAACACAGCGUGGCAAAGUGGCUGUGGCUAGACUAGC as the variant, how does the self-cleavage read?
**A.** 0.2

**Q.** Which self-cleavage does the source give for GGCAGAGCUCAACACAGCGUGGCAAAGUGGCUGUGGCUAGACUGCA here?
**A.** 0.9

**Q.** For GGCAGAGCUCAACACAGCGUGGCAAAGUGGCUGUGGCUAGACUGCU, which self-cleavage is on record?
**A.** 1.03

**Q.** For GGCAGAGCUCAACACAGCGUGGCAAAGUGGCUGUGGCUAGACUGCG, which self-cleavage is on record?
**A.** 0.99

**Q.** For GGCAGAGCUCAACACAGCGUGGCAAAGUGGCUGUGGCUAGAUUGUC, which self-cleavage is on record?
**A.** 0.26

**Q.** With GGCAGAGCUCAACACAGCGUGGCAAAGUGGCUGUGGCUAGAUUGGC as the variant, how does the self-cleavage read?
**A.** 0.09

**Q.** For GGCAGAGCUCAACACAGCGUGGCAAAGUGGCUGUGGCUAGAUUGAC, which self-cleavage is on record?
**A.** 0.14

**Q.** For GGCAGAGCUCAACACAGCGUGGCAAAGUGGCUGUGGCUAGACCGCC, which self-cleavage is on record?
**A.** 0.14

**Q.** With GGCAGAGCUCAACACAGCGUGGCAAAGUGGCUGUGGCUAGACGGCC as the variant, how does the self-cleavage read?
**A.** 0.12

**Q.** With GGCAGAGCUCAACACAGCGUGGCAAAGUGGCUGUGGCUAGACAGCC as the variant, how does the self-cleavage read?
**A.** 0.11

**Q.** Which self-cleavage does the source give for GGCAGAGCUCAACACAGCGUGGCAAAGUGGCUGUGGCUAGAGUGCU here?
**A.** 0.09

**Q.** For GGCAGAGCUCAACACAGCGUGGCAAAGUGGCUGUGGCUAGAGUGCG, which self-cleavage is on record?
**A.** 0.04

**Q.** With GGCAGAGCUCAACACAGCGUGGCAAAGUGGCUGUGGCUAGAGUGCA as the variant, how does the self-cleavage read?
**A.** 0.04

**Q.** Which self-cleavage does the source give for GGCAGAGCUCAACACAGCGUGGCAAAGUGGCUGUGGCUAGACUGUG here?
**A.** 0.39

**Q.** Which self-cleavage does the source give for GGCAGAGCUCAACACAGCGUGGCAAAGUGGCUGUGGCUAGACUGUA here?
**A.** 0.63

**Q.** Which self-cleavage does the source give for GGCAGAGCUCAACACAGCGUGGCAAAGUGGCUGUGGCUAGACUGUU here?
**A.** 1.03

**Q.** Which self-cleavage does the source give for GGCAGAGCUCAACACAGCGUGGCAAAGUGGCUGUGGCUAGAAUGCC here?
**A.** 0.17

**Q.** Which self-cleavage does the source give for GGCAGAGCUCAACACAGCGUGGCAAAGUGGCUGUGGCUAGAGUGCC here?
**A.** 0.07

**Q.** For GGCAGAGCUCAACACAGCGUGGCAAAGUGGCUGUGGCUAGAUUGCC, which self-cleavage is on record?
**A.** 0.35

**Q.** For GGCAGAGCUCAACACAGCGUGGCAAAGUGGCUGUGGCUAGACUCAC, which self-cleavage is on record?
**A.** 0.05

**Q.** With GGCAGAGCUCAACACAGCGUGGCAAAGUGGCUGUGGCUAGACUCUC as the variant, how does the self-cleavage read?
**A.** 0.06

**Q.** For GGCAGAGCUCAACACAGCGUGGCAAAGUGGCUGUGGCUAGACUCGC, which self-cleavage is on record?
**A.** 0.21
